Results: ChEMBL document CHEMBL1142886, “Substrate specificity analysis and inhibitor design of homoisocitrate dehydrogenase” (Bioorg Med Chem, 2007)

Tests used:
[1] = substrate: O=C(O)[C@@H](CCO)[C@@H](O)C(=O)O; experiment: (§1) Ratio of kcat/km of recombinant Saccharomyces cerevisiae homoisocitrate dehydrogenase expressed in Escherichia coli Rosetta cells above 10 mM
[2] = substrate: O=C(O)CCCC[C@H](C(=O)O)[C@@H](O)C(=O)O; experiment: as §1
[3] = substrate: C=CCCC[C@H](C(=O)O)[C@@H](O)C(=O)O; experiment: as §1
[4] = substrate: C[C@H](C(=O)O)[C@@H](O)C(=O)O; experiment: as §1
[5] = substrate: C=C[C@H](C(=O)O)[C@@H](O)C(=O)O; experiment: as §1
[6] = substrate: O=C(O)CC[C@H](C(=O)O)[C@@H](O)C(=O)O; experiment: as §1
[7] = substrate: O=C(O)[C@@H](CCCO)[C@@H](O)C(=O)O; experiment: as §1
[8] = substrate: CCC[C@H](C(=O)O)[C@@H](O)C(=O)O; experiment: as §1
[9] = substrate: CCCCC[C@H](C(=O)O)[C@@H](O)C(=O)O; experiment: as §1
[10] = substrate: CC[C@H](C(=O)O)[C@@H](O)C(=O)O; experiment: as §1
[11] = substrate: O=C(O)[C@@H](CCCCO)[C@@H](O)C(=O)O; experiment: as §1
[12] = substrate: C=CC[C@H](C(=O)O)[C@@H](O)C(=O)O; experiment: as §1
[13] = substrate: O=C(O)CCC[C@H](C(=O)O)[C@@H](O)C(=O)O; experiment: as §1
[14] = substrate: O=C(O)[C@@H](CCO)[C@@H](O)C(=O)O; experiment: (§2) Activity of recombinant Saccharomyces cerevisiae homoisocitrate dehydrogenase expressed in Escherichia coli Rosetta cells
[15] = substrate: O=C(O)CCCC[C@H](C(=O)O)[C@@H](O)C(=O)O; experiment: as §2
[16] = substrate: C=CCCC[C@H](C(=O)O)[C@@H](O)C(=O)O; experiment: as §2
[17] = substrate: C[C@H](C(=O)O)[C@@H](O)C(=O)O; experiment: as §2
[18] = substrate: C=C[C@H](C(=O)O)[C@@H](O)C(=O)O; experiment: as §2
[19] = substrate: O=C(O)CC[C@H](C(=O)O)[C@@H](O)C(=O)O; experiment: as §2
[20] = substrate: O=C(O)[C@@H](CCCO)[C@@H](O)C(=O)O; experiment: as §2
[21] = substrate: CCC[C@H](C(=O)O)[C@@H](O)C(=O)O; experiment: as §2
[22] = substrate: CCCCC[C@H](C(=O)O)[C@@H](O)C(=O)O; experiment: as §2
[23] = substrate: CC[C@H](C(=O)O)[C@@H](O)C(=O)O; experiment: as §2
[24] = substrate: O=C(O)[C@@H](CCCCO)[C@@H](O)C(=O)O; experiment: as §2
[25] = substrate: C=CC[C@H](C(=O)O)[C@@H](O)C(=O)O; experiment: as §2
[26] = substrate: O=C(O)CCC[C@H](C(=O)O)[C@@H](O)C(=O)O; experiment: as §2

B1: Homoisocitrate dehydrogenase, mitochondrial (Saccharomyces cerevisiae S288c), P40495 (protein)
chain: MFRSVATRLSACRGLASNAARKSLTIGLIPGDGIGKEVIPAGKQVLENLNSKHGLSFNFIDLYAGFQTFQETGKALPDETVKVLKEQCQGALFGAVQSPTTKVEGYSSPIVALRREMGLFANVRPVKSVEGEKGKPIDMVIVRENTEDLYIKIEKTYIDKATGTRVADATKRISEIATRRIATIALDIALKRLQTRGQATLTVTHKSNVLSQSDGLFREICKEVYESNKDKYGQIKYNEQIVDSMVYRLFREPQCFDVIVAPNLYGDILSDGAAALVGSLGVVPSANVGPEIVIGEPCHGSAPDIAGKGIANPIATIRSTALMLEFLGHNEAAQDIYKAVDANLREGSIKTPDLGGKASTQQVVDDVLSRL
kcat/Km [1]: 370 M⁻¹ s⁻¹
kcat/Km [2]: 18000 M⁻¹ s⁻¹
kcat/Km [3]: 15 M⁻¹ s⁻¹
kcat/Km [4]: 56 M⁻¹ s⁻¹
kcat/Km [5]: 150 M⁻¹ s⁻¹
kcat/Km [6]: 940000 M⁻¹ s⁻¹
kcat/Km [7]: 8300 M⁻¹ s⁻¹
kcat/Km [8]: 2400 M⁻¹ s⁻¹
kcat/Km [9]: 15 M⁻¹ s⁻¹
kcat/Km [10]: 1000 M⁻¹ s⁻¹
kcat/Km [11]: 4800 M⁻¹ s⁻¹
kcat/Km [12]: 830 M⁻¹ s⁻¹
kcat/Km [13]: 62000 M⁻¹ s⁻¹
Km [14]: 2100 µM
kcat [14]: 0.78 s⁻¹
Km [15]: 170 µM
kcat [15]: 3.1 s⁻¹
Km [16]: 9400 µM
kcat [16]: 0.14 s⁻¹
Km [17]: 5700 µM
kcat [17]: 0.32 s⁻¹
Km [18]: 3400 µM
kcat [18]: 0.5 s⁻¹
Km [19]: 18 µM
kcat [19]: 17 s⁻¹
Km [20]: 580 µM
kcat [20]: 4.8 s⁻¹
Km [21]: 290 µM
kcat [21]: 0.7 s⁻¹
Km [22]: 7200 µM
kcat [22]: 0.11 s⁻¹
Km [23]: 600 µM
kcat [23]: 0.61 s⁻¹
Km [24]: 440 µM
kcat [24]: 2.1 s⁻¹
Km [25]: 410 µM
kcat [25]: 0.34 s⁻¹
Km [26]: 26 µM
kcat [26]: 1.6 s⁻¹
